{"source": "patent US20120329717A1", "key": {"[1]": {"target": "N-type VGCCs controlling excitatory synaptic transmission between primary afferents and dorsal horn (rat) (UniProt Q02294)", "sequence (Q02294 whole entry)": "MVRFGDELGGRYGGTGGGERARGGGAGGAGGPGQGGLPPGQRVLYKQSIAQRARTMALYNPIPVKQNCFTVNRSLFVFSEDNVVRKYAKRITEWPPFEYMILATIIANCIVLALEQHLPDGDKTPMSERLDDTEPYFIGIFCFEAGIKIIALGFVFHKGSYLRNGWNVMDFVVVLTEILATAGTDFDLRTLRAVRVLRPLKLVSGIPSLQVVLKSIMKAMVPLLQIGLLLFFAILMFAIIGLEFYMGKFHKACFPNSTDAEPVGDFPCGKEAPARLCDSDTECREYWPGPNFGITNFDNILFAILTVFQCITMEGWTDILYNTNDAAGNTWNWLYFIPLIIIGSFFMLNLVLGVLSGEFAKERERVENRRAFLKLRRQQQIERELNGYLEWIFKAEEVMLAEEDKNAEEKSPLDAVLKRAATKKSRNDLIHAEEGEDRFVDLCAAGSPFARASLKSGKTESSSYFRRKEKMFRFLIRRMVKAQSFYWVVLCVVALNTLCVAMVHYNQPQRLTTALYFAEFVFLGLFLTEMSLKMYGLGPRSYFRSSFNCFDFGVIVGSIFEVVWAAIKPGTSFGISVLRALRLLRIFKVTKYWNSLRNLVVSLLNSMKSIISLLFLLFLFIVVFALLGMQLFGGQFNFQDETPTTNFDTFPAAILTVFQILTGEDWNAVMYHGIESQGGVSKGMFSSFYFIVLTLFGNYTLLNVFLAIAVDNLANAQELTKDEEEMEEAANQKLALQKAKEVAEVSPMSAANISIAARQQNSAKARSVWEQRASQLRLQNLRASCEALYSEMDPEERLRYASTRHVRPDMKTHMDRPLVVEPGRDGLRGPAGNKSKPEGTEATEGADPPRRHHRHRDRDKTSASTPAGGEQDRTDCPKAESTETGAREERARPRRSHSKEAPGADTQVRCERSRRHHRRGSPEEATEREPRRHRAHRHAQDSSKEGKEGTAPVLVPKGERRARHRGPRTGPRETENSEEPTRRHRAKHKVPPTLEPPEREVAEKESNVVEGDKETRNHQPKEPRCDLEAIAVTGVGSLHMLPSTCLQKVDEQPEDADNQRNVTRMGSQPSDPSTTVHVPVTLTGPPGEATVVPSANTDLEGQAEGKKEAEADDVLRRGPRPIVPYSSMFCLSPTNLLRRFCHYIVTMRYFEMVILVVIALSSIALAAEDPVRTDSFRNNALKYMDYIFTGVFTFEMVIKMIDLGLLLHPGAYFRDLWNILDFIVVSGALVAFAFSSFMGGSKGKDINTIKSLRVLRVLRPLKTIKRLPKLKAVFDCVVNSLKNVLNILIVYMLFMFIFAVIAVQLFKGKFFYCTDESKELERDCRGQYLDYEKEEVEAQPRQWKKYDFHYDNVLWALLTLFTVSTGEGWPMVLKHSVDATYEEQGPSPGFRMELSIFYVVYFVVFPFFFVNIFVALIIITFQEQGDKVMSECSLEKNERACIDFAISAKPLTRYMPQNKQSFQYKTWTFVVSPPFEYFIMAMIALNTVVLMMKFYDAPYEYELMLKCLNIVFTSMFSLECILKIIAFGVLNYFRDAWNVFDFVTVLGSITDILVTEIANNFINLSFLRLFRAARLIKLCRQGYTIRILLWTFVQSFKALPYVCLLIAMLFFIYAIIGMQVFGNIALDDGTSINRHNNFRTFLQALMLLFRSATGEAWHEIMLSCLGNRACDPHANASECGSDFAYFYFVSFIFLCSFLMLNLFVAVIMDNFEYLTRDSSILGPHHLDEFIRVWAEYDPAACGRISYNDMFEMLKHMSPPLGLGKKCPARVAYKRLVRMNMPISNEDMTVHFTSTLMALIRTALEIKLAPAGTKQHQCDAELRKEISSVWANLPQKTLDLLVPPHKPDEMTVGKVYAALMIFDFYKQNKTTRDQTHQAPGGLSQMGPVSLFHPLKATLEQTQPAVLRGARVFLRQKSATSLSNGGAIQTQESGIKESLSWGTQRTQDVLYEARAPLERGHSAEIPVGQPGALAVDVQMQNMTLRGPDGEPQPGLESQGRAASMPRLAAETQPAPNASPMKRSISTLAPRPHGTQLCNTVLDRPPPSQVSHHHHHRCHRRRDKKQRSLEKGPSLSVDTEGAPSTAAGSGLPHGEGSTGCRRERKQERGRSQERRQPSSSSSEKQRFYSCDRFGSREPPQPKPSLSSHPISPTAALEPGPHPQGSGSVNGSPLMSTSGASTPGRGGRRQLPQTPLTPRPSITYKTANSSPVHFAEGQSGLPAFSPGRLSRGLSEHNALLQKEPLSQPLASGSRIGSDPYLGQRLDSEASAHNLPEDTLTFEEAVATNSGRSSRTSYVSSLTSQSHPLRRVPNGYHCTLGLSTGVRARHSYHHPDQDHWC", "experiment": "cell-based or functional assay"}, "[2]": {"target": "N-type VGCCs in rat brain membranes (rat) (UniProt Q02294)", "sequence (Q02294 whole entry)": "as above", "experiment": "displacement of 125I-GVIA from rat brain membranes"}, "[3]": {"target": "N-type VGCCs in rat brain membranes (rat), Q02294", "sequence (Q02294 whole entry)": "as above", "experiment": "displacement of 125I-GVIA from rat brain membranes"}, "[4]": {"target": "N-type VGCCs controlling excitatory synaptic transmission between primary afferents and dorsal horn (rat), Q02294", "sequence (Q02294 whole entry)": "as above", "experiment": "cell-based or functional assay"}}, "data": [{"molecule": "ω-conotoxin CVIE (peptide)", "values": [{"measurement": "EPSC amplitude recovered 10-15 min after washout, percent of control", "setting": "[1]", "value": 78, "unit": "%"}, {"measurement": "affinity", "setting": "[2]", "value": 37, "unit": "µM"}, {"measurement": "pIC50", "setting": "[2]", "value": 10.7, "unit": "M"}]}, {"molecule": "CKGKGASCRRTSYDCCTGSCRSGRC (modifications not checked)", "note": "[ω-conotoxin CVIF]", "values": [{"measurement": "affinity", "setting": "[3]", "value": 98, "unit": "µM"}, {"measurement": "pIC50", "setting": "[3]", "value": 10.6, "unit": "M"}, {"measurement": "EPSC amplitude recovered 10-15 min after washout, percent of control", "setting": "[4]", "value": 73, "unit": "%"}]}, {"molecule": "CKSPGSSCSPTSYNCCRSCNPYTKRCY (modifications not checked)", "note": "[ω-conotoxin GVIA, P01522 46-72]", "values": [{"measurement": "affinity", "setting": "[3]", "value": 24, "unit": "µM"}, {"measurement": "pIC50", "setting": "[3]", "value": 10.6, "unit": "M"}]}, {"molecule": "CKSKGAKCSKLMYDCCSGSCSGTVGRC (modifications not checked)", "note": "[ω-conotoxin CVID, P58920 46-72]", "values": [{"measurement": "affinity", "setting": "[3]", "value": 12, "unit": "µM"}, {"measurement": "pIC50", "setting": "[3]", "value": 11, "unit": "M"}]}]}
